Source: US20260139049A1 (PEDIATRIC IMMUNITY AND HEALTHCARE GUANGZHOU BIOTECHNOLOGY, published 2026)
Changes are numbered by the printed parent chain. Blank lines part the entries; values can stand above or below the binder they belong to.

Assays:
human CLDN6 [1] = target: T1, human CLDN6 (human, UniProt P56747 1-220); test: FACS on CHO-K1-CLDN6 cells, against PiH1004 (FIG. 40)
T1 construct: whole, on cells; four-transmembrane protein; also called claudin-6; HEK293T-CLDN6
T1 sequence (looked up): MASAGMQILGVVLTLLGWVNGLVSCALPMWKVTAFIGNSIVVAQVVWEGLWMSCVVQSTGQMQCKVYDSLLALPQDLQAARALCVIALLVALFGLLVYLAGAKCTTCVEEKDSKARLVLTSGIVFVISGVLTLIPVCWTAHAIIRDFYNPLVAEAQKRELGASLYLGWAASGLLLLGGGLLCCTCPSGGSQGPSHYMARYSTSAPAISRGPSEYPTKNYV

human CLDN6 [2] = target: T1, human CLDN6; test: FACS on HEK293T-CLDN6 cells
Procedure: (§1) To detect a binding capacity of a chimeric or humanized antibody to CLDN6, a CLDN6-expressing cell line HEK293T-CLDN6 and a CLDN6-negative control cell line HEK293T were washed three times with PBS. 1×10⁵ test cells and 50 μL of an antibody solution to be tested were added to a 96-well plate, and incubated at 4° C. for 1 h. The cells were then washed three times with PBS. […] Finally, cells were washed three times with PBS, and signals were read using FACS.
(§2) An EC50 value (a concentration of an antibody that binds to half of binding sites at equilibrium) is calculated through nonlinear regression.

human CLDN6 [3] = target: T1, human CLDN6; test: FACS on PA-1 tumour cells; target on the cells taken as CLDN6
Procedure: (§3) 50 μL of an antibody to be tested was added to a 96-well plate, then 1×10⁵ cells were added to each well, and incubation was conducted at 4° C. for 1 h. Cells were washed three times with PBS. […] Finally, cells were washed three times with PBS, and signals were read using FACS. A binding capacity of the antibody to each tumor cell was analyzed based on detection data.

human CLDN6 [4] = target: T1, human CLDN6; test: FACS on HepG2 tumour cells; target on the cells taken as CLDN6
Procedure: as §3

human CLDN3 = target: T2, human CLDN3 (human, UniProt O15551 1-220); test: FACS on 293T-CLDN3 cells, 10 µg/mL
T2 construct: whole, on cells; also called HEK293T-CLDN3
T2 sequence (looked up): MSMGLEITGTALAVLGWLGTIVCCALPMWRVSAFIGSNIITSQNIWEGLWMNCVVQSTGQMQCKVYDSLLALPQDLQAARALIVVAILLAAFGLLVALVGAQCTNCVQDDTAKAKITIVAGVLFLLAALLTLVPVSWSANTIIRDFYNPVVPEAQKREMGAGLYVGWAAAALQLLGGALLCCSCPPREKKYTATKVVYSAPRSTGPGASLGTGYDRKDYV
Procedure: as §3, with “1× 10⁵” for “1×10⁵”, “Binding capacities” for “A binding capacity”, “CLDN9, CLDN3, and CLDN4 were” for “each tumor cell was”, “analyzed separately” for “analyzed”

human CLDN6 [5] = target: T1, human CLDN6; test: FACS on HepG2 tumour cells; target on the cells taken as CLDN6; remark: listed apart in the source
Procedure: (§4) The specific binding of a chimeric antibody to a tumor cell was detected by FACS, and an EC50 value was calculated accordingly to evaluate an inhibitory effect of the chimeric antibody on the tumor cell.
as §3

human CLDN6 [6] = target: T1, human CLDN6; test: FACS on HEK293T-CLDN6 cells; remark: listed apart in the source
Procedure: as §1, §2

mouse CLDN6 = target: T3, mouse CLDN6 (mouse, UniProt Q9Z262 1-219); test: FACS on CHO-K1-Mouse CLDN6 cells
T3 construct: whole, on cells; also called CHO-K1-Mouse CLDN6
T3 sequence (looked up): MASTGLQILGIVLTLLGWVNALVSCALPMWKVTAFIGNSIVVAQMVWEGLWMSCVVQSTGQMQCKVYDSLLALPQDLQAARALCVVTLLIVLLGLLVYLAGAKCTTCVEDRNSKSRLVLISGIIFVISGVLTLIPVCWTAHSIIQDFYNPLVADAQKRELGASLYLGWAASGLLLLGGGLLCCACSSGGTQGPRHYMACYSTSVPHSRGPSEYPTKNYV

human CLDN6 [7] = target: T1, human CLDN6; test: ratio of FACS Geom.Mean on 293T-CLDN6 over 293T-CLDN9, 10 µg/mL
Procedure: as §3, with “1× 10⁵” for “1×10⁵”, “Binding capacities” for “A binding capacity”, “CLDN9, CLDN3, and CLDN4 were” for “each tumor cell was”, “analyzed separately” for “analyzed”

[8] = target: T4, monkey CLDN6 (Cyno CLDN6) (monkey (Cyno)); test: FACS on CHO-K1-Cyno CLDN6 cells
T4 construct: whole, on cells; also called CHO-K1-Cyno CLDN6

human CLDN6 [9] = target: T1, human CLDN6; test: FACS on PA-1 tumour cells; target on the cells taken as CLDN6; remark: listed apart in the source
Procedure: as §4, §3

human CLDN9 = target: T5, human CLDN9 (human, UniProt O95484 1-217); test: FACS on 293T-CLDN9 cells, 10 µg/mL
T5 construct: whole, on cells; also called HEK293T-CLDN9
T5 sequence (looked up): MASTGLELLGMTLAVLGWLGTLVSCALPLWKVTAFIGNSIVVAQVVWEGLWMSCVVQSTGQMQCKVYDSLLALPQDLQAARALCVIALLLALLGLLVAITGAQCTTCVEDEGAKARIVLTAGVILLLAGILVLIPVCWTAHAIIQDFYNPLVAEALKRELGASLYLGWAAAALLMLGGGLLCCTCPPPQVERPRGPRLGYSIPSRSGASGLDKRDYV
Procedure: as §3, with “1× 10⁵” for “1×10⁵”, “Binding capacities” for “A binding capacity”, “CLDN9, CLDN3, and CLDN4 were” for “each tumor cell was”, “analyzed separately” for “analyzed”

human CLDN4 = target: T6, human CLDN4 (human, UniProt O14493 1-209); test: FACS on 293T-CLDN4 cells, 10 µg/mL
T6 construct: whole, on cells; also called HEK293T-CLDN4
T6 sequence (looked up): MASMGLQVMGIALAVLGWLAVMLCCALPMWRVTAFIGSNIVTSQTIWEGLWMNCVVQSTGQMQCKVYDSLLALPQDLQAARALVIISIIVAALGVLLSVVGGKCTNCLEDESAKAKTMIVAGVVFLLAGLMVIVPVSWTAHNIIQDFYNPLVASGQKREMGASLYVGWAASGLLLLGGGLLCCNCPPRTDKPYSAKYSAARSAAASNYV
Procedure: as §3, with “1× 10⁵” for “1×10⁵”, “Binding capacities” for “A binding capacity”, “CLDN9, CLDN3, and CLDN4 were” for “each tumor cell was”, “analyzed separately” for “analyzed”

human CLDN6 [10] = target: T1, human CLDN6; test: FACS on 293T-CLDN6 cells, 10 µg/mL

binding result (human CLDN6 [1]): binds
B1: PiH1004-VH-VL-Mutation6 (antibody, human IgG1, kappa, V domains shown)
VH: QVQLVQSGAEVKKPGASVKVSCKASGYTFTDYNMHWVRQAPGQSLEWIGYVNPNNGATSYNQKFKGRATMTVDKSTSTVYMELSSLRSEDTAVYNCARWDGYVYYYGLDYWGQGTLVTVSS
VL: DIQMTQSPSSLSASVGDRVTITCKASDHINNWLAWYQQKPGKVPKLLISGATSLETGVPSRFSGSGSGTDYTLTISSLQPEDVATYYCQQYGSTPYTFGGGTKLEIKR
notes: improved antibody from PiH1004

EC50 (human CLDN6 [2]): 0.374 µg/mL
EC50 (human CLDN6 [3]): 0.697 µg/mL
EC50 (human CLDN6 [4]): 2.48 µg/mL
B2: PiH1007 (antibody, human IgG1, kappa, V domains shown)
VH: B1 VH with S44G, K74T
VL: B1 VL with D17G, K45R, G92W
notes: humanized from 51C10H4; IgG1; also called 51-VH3 + VL4

EC50 (human CLDN6 [2]): 0.488 µg/mL
EC50 (human CLDN6 [3]): 0.631 µg/mL
EC50 (human CLDN6 [4]): 1.76 µg/mL
B3: PiH1001 (antibody, human IgG1, kappa, V domains shown)
VH: B1 VH with S44G, V72R, K74T, N95Y
VL: B1 VL with G92W
notes: humanized from 51C10H4; IgG1; also called 51-VH1 + VL3

binding result (human CLDN6 [1]): binds
B4: PiH1004-VH-VL-Mutation7 (antibody, human IgG1, kappa, V domains shown)
VH: B1 VH
VL: B1 VL with G92W, S93H
notes: as for B1

binding result (human CLDN6 [1]): binds
B5: PiH1004-VH-VL-Mutation3 (antibody, human IgG1, kappa, V domains shown)
VH: B1 VH
VL: B1 VL with N31Q, G92W
notes: as for B1

EC50 (human CLDN6 [2]): 0.536 µg/mL
EC50 (human CLDN6 [3]): 0.75 µg/mL
EC50 (human CLDN6 [4]): 1.5 µg/mL
B6: PiH1006 (antibody, human IgG1, kappa, V domains shown)
VH: B1 VH with S44G, A68V, K74T
VL: B1 VL with D17G, K45R, G92W
notes: humanized from 51C10H4; IgG1; also called 51-VH2 + VL4

EC50 (human CLDN6 [2]): 0.447 µg/mL
EC50 (human CLDN6 [3]): 0.455 µg/mL
EC50 (human CLDN6 [4]): 0.886 µg/mL
B7: PiH1008 (antibody, human IgG1, kappa, V domains shown)
VH: B1 VH
VL: B1 VL with D17G, K45R, G92W
notes: humanized from 51C10H4; IgG1; also called 51-VH4 + VL4

binding result (human CLDN6 [1]): binds
B8: PiH1004-VH-VL-Mutation2 (antibody, human IgG1, kappa, V domains shown)
VH: B1 VH
VL: B1 VL with I29V, G92W
notes: as for B1

binding result (human CLDN6 [1]): binds
B9: PiH1004-VH-VL-Mutation4 (antibody, human IgG1, kappa, V domains shown)
VH: B1 VH
VL: B1 VL with A51G, G92W
notes: as for B1

Geom.Mean (human CLDN3): 139
EC50 (human CLDN6 [5]): 0.481 µg/mL
EC50 (human CLDN6 [6]): 0.274 µg/mL
EC50 (mouse CLDN6): 0.117 µg/mL
CLDN6/CLDN9 ratio (human CLDN6 [7]): 462
EC50 [8]: 0.351 µg/mL
EC50 (human CLDN6 [9]): 0.137 µg/mL
Geom.Mean (human CLDN9): 88.4
Geom.Mean (human CLDN4): 5280
Geom.Mean (human CLDN6 [10]): 40800
B10: 15H2D4 (antibody, human IgG1, kappa, V domains shown)
VH: QAYLQQSGAELVRSGASVKMSCKASGYTFTSYNIHWVKQTPGQGLEWIGYIYPGNGGTKYNERFKGKATLTADASSSTAYMQISSLTSEDSAVYFCARWRYYDRPTHYAMDYWGQGTSVTVSS
VL: DIVVTQSPASLAVSLGQRATISCRASKSVSTSGFSYLHWFQQKPGQPPKLLIYLASNLESGVPARFSGSGSGTDFTLNIHPVEEEDVAVYYCQHSREFPFTFGSGTKLEIKR
notes: chimeric: murine variable regions on human IgG1 constant regions
